{"source": "paper PMC3793302", "about": "(Developmental cell, 2004)", "proteins": {"B1": {"name": "C-TSK-Myc-His expressed in Xenopus embryos (natural protein, chick, UniProt Q65Z91 20-369, looked up)", "chain": "KTCFPGCHCEVESFGLFDSFSLTKVDCSGIGSHIVPVPIPLDTSYLDLSSNKLETINESMLTGPGYTTLVSLDLSYNNIAKISSTTFSRLRYLESLDLSHNSLEVLPEDCFSSSPLGDIDLSNNKLLDIALDVFASKGQGKPLNVDLSNNMLSKITRNHEKSIPNIQNLNLSGNRLTSVPNLQGIPLRYLNLDGNPLAKIEKGDFKGLKGLIHLSLSGLHDFRELSPYSFKELPALQVLDLSNNPNLRSLTAEVIFGLNSIQELNLSGTGVSSLPKTVLKYLPSLKSITLRKNIQCFKTIKEGQYHRQIGLTKLGLGAEELLWCKTPCPRPVCRCRDKPLQSAPQNLPTP"}}, "target": "the molecule itself", "experiment": "cross-linking", "data": [{"protein": "B1", "values": [{"measurement": "stoichiometry N", "value": 2}]}]}
